Here are results for six sequences from publication PMC9736018.

This data set has as its target T1, PA3973-His6 (Pseudomonas aeruginosa PAO1161) (UniProt Q9HX43).
T1 sequence: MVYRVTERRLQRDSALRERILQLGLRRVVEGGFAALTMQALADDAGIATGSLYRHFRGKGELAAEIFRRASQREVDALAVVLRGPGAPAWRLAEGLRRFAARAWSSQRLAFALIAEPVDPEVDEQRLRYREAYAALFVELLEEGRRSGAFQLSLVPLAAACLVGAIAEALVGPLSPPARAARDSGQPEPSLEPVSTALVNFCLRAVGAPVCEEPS
The data set can be described thus: EMSA. Conditions: 10 mM Tris-HCl pH 8.5, 10 mM MgCl2, 100 mM KCl, 0.1 mg/mL BSA; ~100 ng DNA plus ~300 ng NS competitor in 20 uL; 23 C, 30 min; 1.5% agarose, 0.5x TBE, 4 C ….

For the sequence “GCGAATTCGCATGCCACCACGGTTGATCCATAGGCTTCGGTCCGCGCTGCGGTGGCGCGGGCGGCGCCCATGATACCGATTCCCCGGGGCGGTGGGGCGCCGCGGAAGGGACGGGCGTAGGAGATTTCATATTTCGCAATGAGGAATCTATTCCCCATTGAGGAATGTTCTGGTGGCGTGATAGCCTGAATGGAAAAGAGAGTCATTCCCATTTGGAGAAGATCCTGGATCCGC (double strand) [PA4156p]”, the binding result is listed as “binds more weakly”.

For “GAGGATCCGTGGGACTCCTTGGGTCGGGCCGGTGGCGAATAGCCAGGGGGACGTCGGGCGCACAAGGTACTGCCAGAAAAACGCTAATGCAAATAATTATCAAATGGATTCAGATATGCGTTTTGTGGCAAAGTTCACCTGTTTTTGCGCGTAGCGCGACCGAACCGGATATGCCCGAGGAACCGTCGATGAGCAGCACTCCCAGCCTTTCCCATTCCCCTGCCGAGCGCATGCGAATTCGC (double strand) [PA4710p]”, the binding result was “binds more weakly”.

Take “GCGAATTCGCATGCGATGGGCGGGAATTGTTGGTCGATTTATGACTTGTAGTTTCTCTGTCGTATGCCTTCAGAACTTGTTGAAGGCTTTTCGGCTCGATTGCACAATGCCGCGCCAAGGTTCGTTCGCGAATCGCGGTATGTGAGCTAGACCTCCGCAGCCGGTGCGCCATCCGCAGTGCCCCGGACTACTCGACAATCACGCAGGAGATTCGTGAGGATCCGC (double strand) [PA0195p]”: the binding result is recorded as “binds”.

On to “GAGAATTCGCATGCCAATGGCGGCGAGGAAAGCGCCTGCGGCTGGTGCCGTGACAAGTGGGGCATCTCCTGGCAGATCACCCCGCGCGTACTCAGCGAAGCCATCGCCAGCCCCGACCGCGCGGCGGCCAGGCGCGCCTTCGAGGCGATGATGACGATGGGCAGGATCGATATCGCCACCATAGAGAAGGCCTTCAAGGGCTGAACGCCCCAACGCCTTGCAAAGGAGTCACGAAGGATCCGC (double strand) [PA2722p]”, for which the binding result is recorded as “binds”.

Take “GAGGATCCGGGGCGGGCTCCGGAGGGTGTTCAGCTCCTAGCATAGCGCCCTCGCCTTGCGCCGTTCAGACCTTCGCGCAGCGCCCCTCGCGGCCGCGCGCCAGTTCCCTGTTGTCCTGGTCGTAGAGCTTCGCCCAGGGACGGAAGCCGATGTGCCCGGCCTCCAGGCGGTAGCGCTGGCCGGCGCTGAAGTCCTTGAACTTGAGGTTGAGCTGGCAATCGCGCCAGAGCGGGCTGTCCACGGGGCCGGCATGCGAATTCGC (double strand) [PA0061p]”: the binding entry was “binds”.

As to “GCGAATTCGCATGCGGCGCTGGAGATTCCCGGCGAGGGCGCGGTGGGCATGTGCTGGCGCGACGAACCGCACCGCGACCGTGCCAGCGAAGACCTGCTGGCCTGCCTGCGCGAAGGCGCGGCGGCCGAGTAGGGCGCCGGCCGGCGGGTGCTATTGCAAAAAGGCCGCGGCTTCTCGACAATGCGATTCATTATCATTCATGTGTCGCCCCGACTTTCCCATGGGATCCGC (double strand) [PA2468p]”, the binding entry is on record as “binds more weakly”.
